Assay results taken from the DeepSol protein solubility set.

Experiment: soluble on expression in E. coli; label from the status in PepcDB or PDB records

Row | Sequence | soluble on expression in E. coli
1 | MFGFGGFTRDLGIDLGTANTLVYVKGKGVVLREPSVVALQTDTKQIVAVGSDAKQMIGRTPGNVVALRPMKDGVIADYETTATMMKYYIQQAQKSNGFFSRKPYVMVCVPSGITAVERRAVIDATRQAGARDAYPIEEPFAAAIGANLPVWEPTGSMVVDIGGGTTEVAIISLGGIVTSQSVRVAGDDMDDSIIQYIKKSYNLMIGERTAEALKLEIGSAGEPEGIEPMEIRGRDLVSGLPKTVLIQPEEIADALKDTVDAIVESVKNTLEKTPPELAADIMDRGIVLTGGGALLRNLDKVISEETNMPVLVAEDPLDCVAIGTGKALDNIDLFKTAAR | not soluble
2 | MVKLTSIAAGVAAIAATASATTTLAQSDERVNLVELGVYVSD | not soluble
3 | MEDERIKLLFKEKALEILMTIYYESLGGNDVYIQYIASKVNSPHSYVWLIIKKFEEAKMVECELEGRTKIIRLTDKGQKIAQQIKSIIDIMENDT | soluble
4 | GDSFYIRTHFEYEKESPYGLSFNKGEVFRVVDTLYNGKLGSWLAIRIGKNHKEVERGIIPNKNRAEQLASVQYVQTKFPAYERVVLREAGFLRPVTIFGPIADVAREKLAREEPDIYQIAKSEPRDAGTDQRSSGIIRLHTIKQIIDQDKHALLDVTPNAVDRLNYAQWYPIVVFLNPDSKQGVKTMRMRLCPESRKSARKLYERSHKLRKNNHHLFTTTINLNSMNDGWYGALKEAIQQQQNQLVWVSEG | soluble
5 | MAQQQNPYYGTGFYQPSGTYVQPQQMTQQQQQAMQQQTAQAAQAQYAISQGMLPLEQSYIENILRLNKGKQATVVMTYERGSSLGTQSYTGIIEAAGRDHIVISEPQSGKRYLLLMIYLDYVEFPEEITYLPSQQATYTPRP | soluble
6 | TLYDKVWDQHKVTTLPNGQDQLFVGLHLIHEVTSPQAFGMIKERGLEVARPDLTHATVDHIVPTANQDRPYSDDAAETMMAELEENVRDAGIQFSDPTTGDQGIVHVIGPEQGITQPGKTIVCGDSHTSTHGAFGALAFGIGTSQIRDVLATQTIAMEKQKV | not soluble
7 | SSVWNLGRLNHVAIAVPDLEKAAAFYKNILGAQVSEAVPLPEHGVSVVFVNLGNTKMELLHPLGLDSPIAGFLQKNKAGGMHHICIEVDNINAAVMDLKKKKIRSLSEEVKIGAHGKPVIFLHPKDCGGVLVELEQA | soluble
8 | MELESKMGAFCGAAQSNYDDACVAFSAANKCAPIERETGVKKLADKLNPEQPHKLSVMDVKLITKASGDYTIVNSLLYSLDMVAVAVDKNGESETFVKRTLDNSIYAGELAQEALKHAGQKRMTGRSKNTIVKKAHTAIGNLVLLINDMEGRTPNASSFLSMGMDLLSSGVTVPGLA | not soluble
9 | MAHHHHHHMRIHHAFFRQSCRIMRGIDSARSTPTFVNGTDGMGTIHMLFSKRTHSNTTHSNADSAYMPGSNLHVEHPIVQLPARSLWCKQYPLDISLVRRGEFNDMIGRVRAARHYYQYPSLCAPKIGWNVQMFTLFDGTVFINPINLDALEVEEIAKQKSITFVEAEALWMEKKRREGKTCFAWEPCASCCFLLHFIERPSTVRVRAIAEDGNPFEVTLDKMRARMALHELDHLNGILFTRRIPDTSHVVPLEGFSTMSEWPDDYPSLEARSTFLYTTFTPPYTFITDSVEDAQLLDRKFEDGIYPGCEHDRRMRIESAAFEELQRAQWRMEKTREENSEEYDGVEGEVDEEDQEHCEETAAGGVAVKDNAPQ | not soluble
10 | MERPGSGLAGVVVGCDDGRVEKLGPQAGFTAVACISWDNRLRLPLAGSLGLVRVDGVDATSVLAGLVLRLGAAGRPVLLDSLTIGGFNIVSPPGVERLTGSPVLAVYNYRPSLERLESGLRSSRLPLAGVRARVLSLVEEAAEASTPHGPVYLVAWGLEASEARRLVLETQVYGRKPEPVRIAHYTASEASEALRRV | not soluble
11 | MGIRVKRRQHQHLLESLVHSTAKQQGDFTKTAELATELLCQNLAVSLVSIWIFSADQGTQSLVAQFGSMALQDTYRPSLLHTVPRYLNELKNYRHIDAGNTLIDPRLTELVDSYFIPRQILSSLDVGIRINGHLEGVLCIERAQVTHHWHDSEIHLACQMADQLALTLATKHAYDKEERLSLFRCAIEQSRQMSMLEHHHHHH | soluble
12 | MKYKHLILSLSLIMLGPLAHAEEIGSVDTVFKMIGPDHKIVVEAFDDPDVKNVTCYVSRAKTGGIKGGLGLAEDTSDAAISCQQVGPIELSDRIKNGKAQGEVVFKKRTSLVFKSLQVVRFYDAKRNALAYLAYSDKVVEGSPKNAISAVPVMPWRQ | soluble
